In US11505576B2, “Polypeptides based on a scaffold” (AFFIBODY AB, priority 2018, dated 2022) one finds Tm data, which are given here for 15 substances.

One series can be described thus: Circular dichroism spectroscopy analysis (CD spectra, variable temperature measurement, refolding). It is filed as physicochemical. The conditions noted are these: Table 2; Ylib001Naive.I selection; MGSSHHHHHHGSS-[Y#####]-ASGSVD; 0.5 mg/ml in PBS, 221 nm, 20-90° C. On the procedure: The respective Y variant was diluted to 0.5 mg/ml in PBS. A CD spectrum at 250-195 nm was obtained at 20° C. In addition, a variable temperature measurement (VTM) was performed to determine the melting temperature (Tm). In the VTM, absorbance was measured at 221 nm while the temperature was raised from 20° C. to 90° C. with a temperature gradient of 5° C./min. A new CD spectrum was obtained at 20° C. after the heating procedure, in order to study the refolding ability of the Y variants. The CD measurements were performed on a Jasco J-810 spectropolarimeter (Jasco Scandinavia AB) using a cell with an optical path length of 1 mm.
Produced Y variants were subjected to CD and SPR analyses according to the methods described in Example 1.
The Y variants were cloned, produced and characterized according to the general methods described in Example 1. Produced Y variants with point mutations and/or N-terminal or C-terminal extensions were subjected to CD and SPR analyses as described in Example 1.
Produced Y variants were subjected to CD and SPR analyses according to the methods described in Example 1. In addition, CD spectra of selected IL-6 binding variants were also recorded at 60, 70, 80 and 90° C.
The Y variants were cloned, produced and characterized according to the general methods described in Example 1. Produced Y variants with point mutations were subjected to CD and SPR analyses as described in Example 1. In addition, CD spectra of the IL-6 binding variants were also recorded at 60, 70, 80 and 90° C.
In the case of “Y00001: C4 binding Y variant from Ylib001Naive.I, SEQ ID NO:1 (LAEAKEAAIAELDSKGINEAIISKIERAESVEEVEYWKEEILAQLP; Engineered C4 binding Y variant)”, the Tm worked out at 61 °C. Same read-out and setting: the result for “Y00004: C4 binding Y variant from Ylib001Naive.I, SEQ ID NO:4 (LAEAKEAANAELDSYGVDADLIKKIERAESVEEVEFWKEEILAHLP; Engineered C4 binding Y variant)” reads 45 °C; that for “Y00005: C4 binding Y variant from Ylib001Naive.I, SEQ ID NO:5 (LAEAKEAAIAELDSAGVNEVQKSKIEQASSVEEVEFWKEEILAQLP; Engineered C4 binding Y variant)”, 60 °C.

For the substance “Y00006: C4 binding Y variant from Ylib001Naive.I, SEQ ID NO:6 (LAEAKEAAIAELDSYGVVANLKKKIEIAKSVEQVEFWKEEILAQLP; Engineered C4 binding Y variant)”, the Tm came to 49 °C.

The series is the same for the next values; noted with them: Table 3, mutation study 1; MGSSHHHHHHGSS-[Y#####].
On to “Y00001: C4 binding Y variant from Ylib001Naive.I, SEQ ID NO:1 (LAEAKEAAIAELDSKGINEAIISKIERAESVEEVEYWKEEILAQLP; Engineered C4 binding Y variant)”, for which the Tm is 57 °C.

As for “Y00262: C4 binding Y variant, Y00001 with S23K, SEQ ID NO:18 (LAEAKEAAIAELDSKGINEAIIKKIERAESVEEVEYWKEEILAQLP; Engineered C4 binding Y variant)”, the Tm was determined as 61 °C.

Still in this series, the particulars now being: Table 4, mutation study 2; MGSSHHHHHHGSS-[Y#####].
As to “Y00262: C4 binding Y variant, Y00001 with S23K, SEQ ID NO:18 (LAEAKEAAIAELDSKGINEAIIKKIERAESVEEVEYWKEEILAQLP; Engineered C4 binding Y variant)”, the Tm was 61 °C. For “Y00282: C4 binding Y variant, Y00262 with I17V, SEQ ID NO:19 (LAEAKEAAIAELDSKGVNEAIIKKIERAESVEEVEYWKEEILAQLP; Engineered C4 binding Y variant)”, the Tm was determined as 61 °C. On the same count and under the same terms, the value for “Y00283: C4 binding Y variant, Y00262 with N18S, SEQ ID NO:20 (LAEAKEAAIAELDSKGISEAIIKKIERAESVEEVEYWKEEILAQLP; Engineered C4 binding Y variant)” was 61 °C. Regarding “Y00284: C4 binding Y variant, Y00262 with E19A, SEQ ID NO:21 (LAEAKEAAIAELDSKGINAAIIKKIERAESVEEVEYWKEEILAQLP; Engineered C4 binding Y variant)”, the Tm came out at 64 °C.

“Y00285: C4 binding Y variant, Y00262 with I22K, SEQ ID NO:22 (LAEAKEAAIAELDSKGINEAIKKKIERAESVEEVEYWKEEILAQLP; Engineered C4 binding Y variant)”: the Tm is 57 °C.

Take “Y00286: C4 binding Y variant, Y00262 with E26Q, SEQ ID NO:23 (LAEAKEAAIAELDSKGINEAIIKKIQRAESVEEVEYWKEEILAQLP; Engineered C4 binding Y variant)”: the Tm was 62 °C. Still for that read-out and setting: the result for “Y00287: C4 binding Y variant, Y00262 with E35Q, SEQ ID NO:24 (LAEAKEAAIAELDSKGINEAIIKKIERAESVEEVQYWKEEILAQLP; Engineered C4 binding Y variant)” reads 62 °C; that for “Y00288: C4 binding Y variant, Y00262 with E39Q, SEQ ID NO:25 (LAEAKEAAIAELDSKGINEAIIKKIERAESVEEVEYWKQEILAQLP; Engineered C4 binding Y variant)”, 66 °C; that for “Y00289: C4 binding Y variant, Y00262 with E35Q + E39Q, SEQ ID NO:26 (LAEAKEAAIAELDSKGINEAIIKKIERAESVEEVQYWKQEILAQLP; Engineered C4 binding Y variant)”, 65 °C.

For “Y00290: C4 binding Y variant, Y00262 with E35Q + A43K, SEQ ID NO:27 (LAEAKEAAIAELDSKGINEAIIKKIERAESVEEVQYWKEEILKQLP; Engineered C4 binding Y variant)”, the Tm was 69 °C. On the same count and under the same terms, the result for “Y00291: C4 binding Y variant, Y00262 with E35Q + E39Q + A43K, SEQ ID NO:28 (LAEAKEAAIAELDSKGINEAIIKKIERAESVEEVQYWKQEILKQLP; Engineered C4 binding Y variant)” reads 66 °C.
